Experimental data from patent publication US20110124841A1 (published 2011).
MPEG 20 kDa = 20 kDa MPEG from MPEG iodoacetamide

B1: PEGylated SB C-protein (residues 388 to 453 of SEQ ID NO:1) (other)
chain: GTLEHHHHHHGSPEIEKLSQSDIYWDPIVSITETGVEEVFDLTVPGPRNFVANDIIVHNSGGGC(MPEG 20 kDa)GP
B2: PEGylated SG C-protein (residues 388 to 449 of SEQ ID NO:3) (other)
chain: GTLEHHHHHHGSEAVLNYNHRIVNIEAVSETIDVYDIEVPHTHNFALASGVFVHNSAGGC(MPEG 20 kDa)GP

Columns and labels:
[1] = molecular target: SB N-protein (SEQ ID NO:2); assay: cell-based or functional assay
[2] = molecular target: SG N-protein (SEQ ID NO:4); assay: cell-based or functional assay

| Binder | efficiency of the trans-splicing reaction, from SDS-PAGE protein band intensity; molar ratio approximately 1 [1] [%] | efficiency of the trans-splicing, from SDS-PAGE protein band intensity; room temperature, molar ratio of C-protein to N-protein approximately 1 (Lane 9) [2] [%] | efficiency of the trans-splicing, from SDS-PAGE protein band intensity; room temperature, molar ratio of C-protein to N-protein approximately 5 (Lane 13) [2] [%] |
| --- | --- | --- | --- |
| B1 | ~30 | – | – |
| B2 | – | ~50 | ~90 |
